The values below come from PMC6315291.

For this assay, the target named is Recombinant human Pentraxin 3 (PTX3) (human) (UniProt P26022). In words: ELISA.
UniProt P26022, sequence (P26022 18-381): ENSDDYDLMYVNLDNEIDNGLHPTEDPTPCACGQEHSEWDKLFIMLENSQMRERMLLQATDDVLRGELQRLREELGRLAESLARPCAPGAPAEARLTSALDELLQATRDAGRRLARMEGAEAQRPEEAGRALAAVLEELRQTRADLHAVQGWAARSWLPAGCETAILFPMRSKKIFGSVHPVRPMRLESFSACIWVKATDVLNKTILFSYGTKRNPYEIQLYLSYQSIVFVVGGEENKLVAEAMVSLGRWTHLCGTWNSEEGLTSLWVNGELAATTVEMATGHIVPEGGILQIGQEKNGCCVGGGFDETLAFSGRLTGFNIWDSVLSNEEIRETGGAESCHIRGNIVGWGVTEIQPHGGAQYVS

As to “Human TSP1 construct E123CaG-1 (type II repeats plus type III repeats and globular C-terminus) (domain or fragment)”, the increase of OD 450 nm over control buffer (% fold increase) worked out at 64.
